The results in this text go back to patent publication US20020006903A1.

For assay [1], the target named is T cell receptor of 2C cytotoxic T lymphocytes. The assay is described as follows: cell-based or functional assay.
Assay [2] has the same target. The assay is described as follows: flow cytometry on 2C T cells, varying concentrations of complex. For orientation: Flow cytometry measures light scatter and fluorescence of single cells or particles in a stream.
Assay [3] shares this target. As to the kind of experiment: flow cytometry on 2C T cells, actively against passively loaded complex.
For assay [4] the target is unchanged. The assay is described as follows: flow cytometry on 2C T cells, actively loaded complex, half maximal staining.
Assay [5] has the same target. As to the kind of experiment: flow cytometry on 2C T cells, actively loaded complex at 0.1 nM.
Assay [6] shares this target. The assay is described as follows: flow cytometry on 2C T cells, passively loaded complex, half maximal staining.
The target is the same in assay [7]. The assay is described as follows: flow cytometry on 2C T cells, passively loaded complex.
Assay [8] shares this target. The assay is described as follows: flow cytometry on 2C T cells, actively loaded complex.

Chain of QL9 peptide-loaded H-2 L^d/Ig complex (P01897 25-309, one chain of several): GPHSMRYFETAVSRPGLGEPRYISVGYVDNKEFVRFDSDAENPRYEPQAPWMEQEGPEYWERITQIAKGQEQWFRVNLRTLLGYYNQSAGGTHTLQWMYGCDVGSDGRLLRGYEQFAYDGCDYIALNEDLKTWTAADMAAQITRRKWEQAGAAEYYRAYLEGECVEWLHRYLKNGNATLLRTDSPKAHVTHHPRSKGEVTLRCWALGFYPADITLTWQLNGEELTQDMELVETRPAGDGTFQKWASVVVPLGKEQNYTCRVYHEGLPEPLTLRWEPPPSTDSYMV
Chain of SIY peptide-loaded H-2 K^b/Ig complex (P01901 22-305, one chain of several): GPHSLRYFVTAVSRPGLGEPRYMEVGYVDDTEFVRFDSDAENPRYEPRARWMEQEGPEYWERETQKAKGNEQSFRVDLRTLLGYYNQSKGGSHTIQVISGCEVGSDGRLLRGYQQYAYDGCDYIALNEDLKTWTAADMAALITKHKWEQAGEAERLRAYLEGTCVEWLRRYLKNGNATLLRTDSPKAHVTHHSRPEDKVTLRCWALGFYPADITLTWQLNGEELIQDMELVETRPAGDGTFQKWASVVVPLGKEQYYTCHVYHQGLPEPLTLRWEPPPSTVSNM

Usually EC50 stands for the concentration needed to bring the measured effect to its halfway point. High values mean lower potency in that assay, low ones higher potency in that assay. In assay [1], “QL9 peptide-loaded H-2 L^d/Ig complex (from UniProt P01897 25-309) (peptide-MHC)” yielded a half maximal inhibition of target cell lysis by 2C CTL of 10 nM and a target cell lysis by 2C CTL (percent specific lysis, chromium release) of 2%. In addition, the EC50 in assay [2] is 1 nM.
In assay [1], “SIY peptide-loaded H-2 K^b/Ig complex (from UniProt P01901 22-305) (peptide-MHC)” gave a 2C CTL mediated lysis of target cells (specific lysis) of 35%, a concentration of maximal inhibition of proliferation of 2C CTL stimulated by allogeneic splenic cells of 20 nM, a half maximal inhibition of proliferation of 2C CTL of 1 nM and a stimulation index of 2C CTL proliferation ([3H]thymidine) of 10. In assay [3], this substance showed a fold more effective in staining than the “passively” loaded complex of 10 to 100 fold. Further, the EC50 in assay [4] was found to be 1 nM. In assay [5], this substance gave a mean channel fluorescence (MCF) at 0.1 nM of 53. This substance registered an EC50 in assay [6] of 10 nM. The same substance yielded an EC50 in assay [2] of 1 nM. Also, the concentration required for staining in assay [7] was 10 nM. The same substance yielded a lowest concentration at which staining was seen in assay [8] of 0.1 nM.
